Paper PMC13596708
Read-outs that look alike come from different tables or passages of the source.

Experiments:
Assay in all cases: AlphaScreen or HTRF
[1] = target: HIS-tagged BRD4 short isoform (BRD4-S), wild type (human) (UniProt O60885)
[2] = target: HIS-tagged BRD4 short isoform (BRD4-S), wild type (human) (UniProt O60885); remark: listed apart in the source
[3] = target: H4 K12acK16ac nucleosome (human | Xenopus laevis) (UniProt P04908)
[4] = target: H4 K12acK16ac nucleosome (human | Xenopus laevis) (UniProt P04908); remark: listed apart in the source
[5] = target: unmodified nucleosome (human | Xenopus laevis) (UniProt P04908)
[6] = target: H4 K12acK16ac nucleosome (human | Xenopus laevis) (UniProt P04908); remark: listed apart in the source
[7] = target: unmodified nucleosome (human | Xenopus laevis) (UniProt P04908); remark: listed apart in the source
[8] = target: H4 K12acK16ac nucleosome (human | Xenopus laevis) (UniProt P04908); remark: listed apart in the source
[9] = target: H4 K12acK16ac nucleosome (human | Xenopus laevis) (UniProt P04908); remark: listed apart in the source
[10] = target: unmodified nucleosome (human | Xenopus laevis) (UniProt P04908); remark: listed apart in the source
[11] = target: unmodified nucleosome (human | Xenopus laevis) (UniProt P04908); remark: listed apart in the source
[12] = target: H4 K12acK16ac nucleosome (human | Xenopus laevis) (UniProt P04908); remark: listed apart in the source
[13] = target: unmodified nucleosome (human | Xenopus laevis) (UniProt P04908); remark: listed apart in the source

IC50 [1] [nM] | IC50 after accounting for the 12 nucleosomes per array [1] [nM] | IC50 [2] [nM] | Kd [3] [nM] | Kd [4] [nM] | Kd [5] [nM] | Kd [6] [nM] | Kd [7] [nM] | Kd [8] [nM] | Kd [9] [nM] | Kd [10] [nM] | Kd [11] [nM] | Kd [12] [nM] | Kd [13] [nM] | Substance
1 | 12 | 2.4 |  |  |  |  |  |  |  |  |  |  |  | 12x nucleosome array, H4 K12acK16ac histones (from UniProt P04908 1-130; P06899 1-126; P62799 1-103) (complex)
3.3 | 40 | 1.3 |  |  |  |  |  |  |  |  |  |  |  | 12x nucleosome array, unmodified histones (from UniProt P04908 1-130; P06899 1-126) (complex)
 |  |  | 37 | 42 | 37 | 26 | 100 | 12.2 | 8 | 6.6 | 43 | 18 | 71 | HIS-tagged BRD4 short isoform (BRD4-S), wild type (from UniProt O60885-2 2-722) (natural protein)
